Results from the supplement of paper PMC10126150.
± gives the standard deviation of the averaged measurements.

Tested on: ATP
Test: switch fluorescence ratio, 500 uM ATP over buffer (Cy3 cluster intensity, sum of 5 cycles each) (fold (ratio)); higher = stronger signal-on switching upon ATP binding; sequences stand for … in TCGTCGGCAGCGTCAGATGTGTATAAGAGACAGTTTTTTTTTTTTTTTTTTTTTTTTT…TC
Settings: aptamer strand: ATP DNA aptamer (quencher-CACCTGGGGGAGTATTGCGGAGGAAGG + anchor), 100 nM annealed; ATP concentration: 500 uM
Procedure, shortened: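 Clusters with intensities outside 100-1000 RFU were excluded. The remaining Cy3-labelled switching-strand clusters on a modified Illumina MiSeq flow-cell had been annealed to 100 nM quencher-labelled ATP aptamer and imaged in selection buffer, then after 15 min with 500 uM ATP at 22 °C, for five cycles separated by NaOH stripping and re-annealing. The fluorescence ratio, averaged per switch-domain sequence, is each cluster's summed target-cycle Cy3 intensity over its summed buffer-cycle Cy3 intensity.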
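Also: ATP exposure 15 min at 22 °C before imaging.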

Sequence	switch fluorescence ratio
GATATTGAGC	1.02 ± 0.026
GATATTGTGG	0.987 ± 0.025
GATATTTAGG	1.02 ± 0.038
GATATTTCGT	0.9768 ± 0.0034
GATATTTTTG	1 ± 0.024
GATCAAATAT	1.01 ± 0.0063
GATCACGTTG	0.999 ± 0.022
GATCACTATA	1.03 ± 0.054
GATCACTGTA	1.15 ± 0.036
GATCAGAGGT	1 ± 0.029
GATCATATTT	1 ± 0.017
GATCATGCTA	1.02 ± 0.02
GATCCAGAAT	0.9977 ± 0.0074
GATCCATACT	1.06 ± 0.042
GATCCCAGAG	1.16 ± 0.082
GATCCCGCGG	1.049 ± 0.0088
GATCCGAGTT	0.99 ± 0.034
GATCCTACGG	0.972 ± 0.048
GATCCTGAGG	0.968 ± 0.077
GATCGAAGGG	0.9849 ± 0.0079
GATCGATCGT	1 ± 0.027
GATCGCCGTT	1.07 ± 0.063
GATCGGGTTG	0.999 ± 0.026
GATCGTATAT	0.9987 ± 0.0084
GATCTCCCCT	1.38 ± 0.053

Sequence	switch fluorescence ratio
GATCTGGCGG	1.01 ± 0.034
GATCTGGCTT	0.976 ± 0.031
GATCTTAACA	1.003 ± 0.0089
GATGAAACGT	1.06 ± 0.045
GATGAATGCT	0.9814 ± 0.0034
GATGACAGGT	1.03 ± 0.041
GATGACAGTG	0.969 ± 0.083
GATGAGCTGT	1.03 ± 0.046
GATGAGTCTG	0.98 ± 0.044
GATGAGTTGT	0.961 ± 0.021
GATGATGGGA	0.97941 ± 0.00096
GATGATGGGG	0.998 ± 0.044
GATGATGGGT	1 ± 0.023
GATGATTATG	0.993 ± 0.011
GATGATTATT	0.9856 ± 0.0018
GATGATTTGT	1.02 ± 0.058
GATGCAAGTG	1.07 ± 0.033
GATGCCTGGA	1.02 ± 0.086
GATGCGATGT	1.18 ± 0.036
GATGCGGGAG	1.0227 ± 0.00027
GATGCTTATG	1.01 ± 0.04
GATGGACTAA	1.02 ± 0.018
GATGGAGATA	0.936 ± 0.06
GATGGAGGGC	1.05 ± 0.039
GATGGCGGGC	1.01 ± 0.013

Sequence	switch fluorescence ratio
GATGGCTGCG	1.04 ± 0.039
GATGGGAAAT	1 ± 0.012
GATGGGAATG	1.01 ± 0.013
GATGGGGCTC	0.979 ± 0.024
GATGGGGTGT	1.03 ± 0.027
GATGGTGTAA	0.967 ± 0.028
GATGGTTATC	0.961 ± 0.026
GATGGTTGGG	0.998 ± 0.029
GATGGTTGTC	1 ± 0.055
GATGTAACAC	1.07 ± 0.013
GATGTACACG	1.013 ± 0.003
GATGTCAACG	0.973 ± 0.032
GATGTCGTAC	0.99 ± 0.012
GATGTCGTGG	1.015 ± 0.0089
GATGTCTCGA	0.982 ± 0.079
GATGTGCACC	0.983 ± 0.027
GATGTGGGCA	1.05 ± 0.026
GATGTGGTGG	0.99 ± 0.034
GATGTGTGCG	0.897 ± 0.13
GATGTGTTTC	1.03 ± 0.06
GATGTTATTC	0.978 ± 0.011
GATGTTGTAC	1.09 ± 0.079
GATGTTGTTA	0.9647 ± 0.0086
GATGTTTGGA	1.014 ± 0.0049
GATGTTTTCT	0.982 ± 0.054

Sequence	switch fluorescence ratio
GATTAAAAAT	1.0123 ± 0.00055
GATTAAAGGA	1.01 ± 0.011
GATTAAAGGC	1.01 ± 0.039
GATTAAAGGG	1.001 ± 0.0085
GATTAACGTG	0.9917 ± 0.0044
GATTAAGCGT	0.984 ± 0.042
GATTAATTTT	1.02 ± 0.043
GATTACAGGG	0.957 ± 0.038
GATTACTTCA	1.065 ± 0.0071
GATTAGGAGT	0.985 ± 0.014
GATTAGGCGG	0.982 ± 0.066
GATTAGGCTC	1.03 ± 0.082
GATTATAGGT	1.01 ± 0.015
GATTATGGCG	1.047 ± 0.0054
GATTATTCGT	0.99 ± 0.028
GATTATTGTA	0.9762 ± 0.0045
GATTCAGGAG	1 ± 0.032
GATTCAGGGT	1 ± 0.024
GATTCCGAGC	1.44 ± 0.53
GATTCGCCTG	0.99 ± 0.016
GATTCGGGCG	1 ± 0.069
GATTCGGGGT	1 ± 0.017
GATTCGTGGC	0.906 ± 0.14
GATTCTCCGT	1.16 ± 0.016
GATTCTGGCA	0.9715 ± 0.0057

Sequence	switch fluorescence ratio
GATTCTTTTC	0.991 ± 0.014
GATTGACAAT	1.03 ± 0.031
GATTGAGAGT	1.019 ± 0.0087
GATTGAGGTC	0.989 ± 0.037
GATTGATGTG	0.995 ± 0.037
GATTGATTTT	1.02 ± 0.044
GATTGCCGAT	1 ± 0.034
GATTGCCGGT	1.01 ± 0.015
GATTGGAGCA	1.02 ± 0.034
GATTGGGGGT	0.982 ± 0.03
GATTGGGTAC	1.03 ± 0.025
GATTGGTAAT	0.996 ± 0.028
GATTGGTGAG	1.001 ± 0.0046
GATTGGTGGG	1.003 ± 0.0041
GATTGGTGTG	0.997 ± 0.024
GATTGGTTAT	0.962 ± 0.029
GATTGTAATA	1.01 ± 0.034
GATTGTAGTT	0.9586 ± 0.0034
GATTGTGAT	1.01 ± 0.04
GATTGTTCTC	0.981 ± 0.011
GATTGTTGGA	1.02 ± 0.037
GATTGTTTGT	1.03 ± 0.067
GATTGTTTTG	1.01 ± 0.034
GATTTACGTG	1.02 ± 0.012
GATTTAGGCA	0.986 ± 0.015

Sequence	switch fluorescence ratio
GATTTAGGTT	0.999 ± 0.015
GATTTATAAT	1.014 ± 0.0029
GATTTCCAGG	1.2 ± 0.024
GATTTCCGTG	0.98686 ± 0.00065
GATTTCGATT	0.969 ± 0.012
GATTTCTGCT	0.974 ± 0.021
GATTTGCAGA	1 ± 0.024
GATTTGCCGG	0.995 ± 0.013
GATTTGCCTG	0.968 ± 0.036
GATTTGGGAC	1.03 ± 0.05
GATTTGGGGA	0.988 ± 0.028
GATTTGGTGT	1.03 ± 0.057
GATTTGTGCA	0.9952 ± 0.0014
GATTTTACTT	1.03 ± 0.015
GATTTTGCCA	0.9675 ± 0.0045
GATTTTGGCC	0.959 ± 0.037
GATTTTGGTT	0.998 ± 0.014
GATTTTGTAC	1.012 ± 0.0043
GATTTTTAGC	1 ± 0.065
GATTTTTGGT	0.995 ± 0.028
GATTTTTTGT	0.99 ± 0.028
GATTTTTTTC	0.98 ± 0.05
GCAAAAATGG	1.02 ± 0.038
GCAAAACGTA	1.012 ± 0.009
GCAAAAGGTT	1.01 ± 0.022

Sequence	switch fluorescence ratio
GCAAAATCTG	1.04 ± 0.06
GCAAACTAGG	1.11 ± 0.17
GCAAACTCTG	1.12 ± 0.15
GCAAATGGGA	1.05 ± 0.017
GCAAATGGGG	1.02 ± 0.033
GCAAATGTAT	1.004 ± 0.0037
GCAACAATGG	1.08 ± 0.02
GCAACATTTT	1.01 ± 0.043
GCAACGTCAA	1.07 ± 0.076
GCAACGTTCC	1.96 ± 1.4
GCAAGAACTA	1.042 ± 0.0016
GCAAGATCGC	1.09 ± 0.02
GCAAGCGGGA	1.07 ± 0.079
GCAAGGAGGG	1.05 ± 0.14
GCAAGGGGTT	1 ± 0.063
GCAAGGTAAA	1.01 ± 0.037
GCAAGTAGAG	1.0067 ± 0.001
GCAAGTCTGA	1.03 ± 0.019
GCAAGTTGAT	0.96591 ± 0.00067
GCAAGTTTCA	0.996 ± 0.034
GCAATAATCG	1.98 ± 1.4
GCAATAATTA	1.1 ± 0.046
GCAATATGTA	1.62 ± 0.11
GCAATGAACC	1.84 ± 0.078
GCAATGGGTG	1.35 ± 0.027

Sequence	switch fluorescence ratio
GCAATTCAGA	1.064 ± 0.0099
GCAATTGGGA	1.05 ± 0.017
GCAATTGTTT	1.02 ± 0.039
GCAATTTTAG	1.03 ± 0.035
GCAATTTTTT	1.03 ± 0.032
GCACAAGTTG	1.02 ± 0.019
GCACACGGGG	1.01 ± 0.07
GCACATGAAC	1.1 ± 0.022
GCACGAGGAA	1.043 ± 0.0063
GCACGCGAAG	1.04 ± 0.024
GCACGGAGGG	1.01 ± 0.023
GCACGGGACT	1.184 ± 0.011
GCACGGGAGG	1.01 ± 0.032
GCACGGGGCG	1.03 ± 0.034
GCACGTGACC	1.47 ± 0.048
GCACGTGCGT	1.02 ± 0.035
GCACTGGTGG	1.02 ± 0.032
GCACTGTGGG	1 ± 0.016
GCACTTGTTT	1 ± 0.028
GCACTTTACG	1.28 ± 0.06
GCAGAAAAAT	1.04 ± 0.023
GCAGAGGGGG	1.04 ± 0.029
GCAGAGGGTG	1.13 ± 0.086
GCAGATCGAT	1.03 ± 0.015
GCAGCATGTG	1.04 ± 0.026
